Test results reported in patent publication US20260191981A1 (ARROWHEAD PHARMACEUTICALS, published 2026).
Residue numbers refer to the chain shown, from its start. Each block holds one binder with its values, some of them ahead of it.

Assays:
[1] = molecular target: T1, biotinylated hTfR1 (Acro Bio p/n TFR-H82E5) (human, UniProt P02786 89-760, biotinylated; site not stated); experiment: BLI, Octet RH16, biotinylated TfR1 on streptavidin sensor; Fab-siRNA conjugate
T1 construct: Bought reagent of the BLI assay
Procedure: Samples were analyzed via Bio-Layer Interferometry (BLI) to determine kinetics against human transferrin receptor 1 (hTfR1). Briefly, an Octet RH16 (Sartorius) was used for BLI measurements using streptavidin biosensors (Sartorius p/n 18-5019) to irreversibly immobilize biotinylated hTfR1 (Acro Bio p/n TFR-H82E5). […] Sample diluent was prepared in house and is composed of 10 mM PBS pH 7.4 (150 mM NaCl), 0.01% BSA, 0.002% Tween 20, and 0.01% kathon. A 96-well plate was used for analysis, filled with required samples solutions and a row of 10 μg/mL hTfR1 for loading of the streptavidin sensors. For each sample, one well was reserved for a reference sensor control (non-specific binding evaluation with no hTfR1 on surface in highest sample concentration) and a sample reference (buffer only on a hTfR1 loaded sample). One well was also reserved for a second replicate of one of the five concentrations to evaluate sensor and method variability. Eight channels were used for the highest sensitivity offered by the Octet RH16. For each assay performed, the steps were as follows: a sensor check for baseline evaluation of sensor alone in buffer was performed for 30 seconds, followed by loading of the cTfR1 for 60 seconds, then a baseline check for 90 seconds to verify stability of cTfR1 immobilized to sensor surface, then sample association for 180 seconds, and finally sample dissociation for 300 seconds. A shake speed of 1000 was used for all steps. Sample results are analyzed in Octet Analysis software.

[2] = molecular target: T2, biotinylated cTfR1 (Acro Bio p/n TFR-C8249) (cynomolgus monkey, UniProt H9EXL1 89-760 (rhesus entry), biotinylated; site not stated); experiment: as above
T2 construct: Bought reagent of the BLI assay
Procedure: Samples were analyzed via Bio-Layer Interferometry (BLI) to determine kinetics against cynomolgus monkey transferrin receptor 1 (cTfR1). Briefly, an Octet RH16 (Sartorius) was used for BLI measurements using streptavidin biosensors (Sartorius p/n 18-5019) to irreversibly immobilize biotinylated cTfR1 (Acro Bio p/n TFR-C8249). […] Sample diluent was prepared in house and is composed of 10 mM PBS pH 7.4 (150 mM NaCl), 0.01% BSA, 0.002% Tween 20, and 0.01% kathon. A 96-well plate was used for analysis, filled with required samples solutions and a row of 10 μg/mL cTfR1 for loading of the streptavidin sensors. For each sample, one well was reserved for a reference sensor control (non-specific binding evaluation with no cTfR1 on surface in highest sample concentration) and a sample reference (buffer only on a cTfR1 loaded sample). One well was also reserved for a second replicate of one of the five concentrations to evaluate sensor and method variability. Eight channels were used for the highest sensitivity offered by the Octet RH16. For each assay performed, the steps were as follows: a sensor check for baseline evaluation of sensor alone in buffer was performed for 30 seconds, followed by loading of the cTfR1 for 60 seconds, then a baseline check for 90 seconds to verify stability of cTfR1 immobilized to sensor surface, then sample association for 180 seconds, and finally sample dissociation for 300 seconds. A shake speed of 1000 was used for all steps. Sample results were analyzed in Octet Analysis software.

T1 sequence (P02786 89-760 limits assumed): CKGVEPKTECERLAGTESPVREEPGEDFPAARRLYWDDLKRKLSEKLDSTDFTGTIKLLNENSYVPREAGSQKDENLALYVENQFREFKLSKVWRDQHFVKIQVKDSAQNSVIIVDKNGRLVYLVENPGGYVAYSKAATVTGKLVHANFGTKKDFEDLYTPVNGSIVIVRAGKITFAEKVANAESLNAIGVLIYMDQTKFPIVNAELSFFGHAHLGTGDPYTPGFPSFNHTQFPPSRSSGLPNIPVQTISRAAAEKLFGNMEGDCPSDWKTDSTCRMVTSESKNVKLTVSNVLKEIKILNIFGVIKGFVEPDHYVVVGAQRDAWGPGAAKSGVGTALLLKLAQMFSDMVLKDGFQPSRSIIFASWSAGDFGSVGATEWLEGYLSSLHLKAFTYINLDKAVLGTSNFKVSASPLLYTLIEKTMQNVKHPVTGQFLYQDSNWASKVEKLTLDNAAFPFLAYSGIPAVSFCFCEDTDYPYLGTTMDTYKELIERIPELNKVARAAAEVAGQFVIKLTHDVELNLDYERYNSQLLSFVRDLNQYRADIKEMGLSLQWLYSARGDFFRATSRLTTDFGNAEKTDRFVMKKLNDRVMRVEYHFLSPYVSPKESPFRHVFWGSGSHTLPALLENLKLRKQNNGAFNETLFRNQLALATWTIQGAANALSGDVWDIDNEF
T2 sequence (chain, as listed by the source): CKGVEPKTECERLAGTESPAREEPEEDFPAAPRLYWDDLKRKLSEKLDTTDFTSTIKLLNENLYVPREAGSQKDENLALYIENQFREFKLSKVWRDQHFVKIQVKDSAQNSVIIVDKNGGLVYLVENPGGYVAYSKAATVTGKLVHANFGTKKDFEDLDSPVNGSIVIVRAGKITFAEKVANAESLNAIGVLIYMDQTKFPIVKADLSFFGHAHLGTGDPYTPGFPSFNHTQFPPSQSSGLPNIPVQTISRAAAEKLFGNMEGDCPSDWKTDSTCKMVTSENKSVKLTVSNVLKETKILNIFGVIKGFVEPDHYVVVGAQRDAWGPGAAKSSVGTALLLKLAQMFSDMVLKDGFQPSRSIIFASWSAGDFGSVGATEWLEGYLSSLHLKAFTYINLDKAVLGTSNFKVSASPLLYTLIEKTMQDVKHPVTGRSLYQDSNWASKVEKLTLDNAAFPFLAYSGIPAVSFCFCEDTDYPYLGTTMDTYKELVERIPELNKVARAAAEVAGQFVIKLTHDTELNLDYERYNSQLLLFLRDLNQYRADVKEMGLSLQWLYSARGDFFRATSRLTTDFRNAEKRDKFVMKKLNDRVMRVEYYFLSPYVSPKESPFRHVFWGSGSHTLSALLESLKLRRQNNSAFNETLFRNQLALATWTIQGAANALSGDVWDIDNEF

B1: Fab0061-siRNA conjugate (Fab, V domains shown)
VH: EVQLVESGGGLVQPGGSLRLSCATSGYTFTSYWMHWVRQAPGKGLEWVAEINPTNGRVNYIEKFKSRITLSVDKSKSTVYLQMNSLRAEDTAVYYCARGTRAYHYWGQGTLVTVSS
VL: DIQLTQSPSSLSASVGDRVTITCRASDGLYSNLAWYQQKPGKAPKLLIYDATKLASGVPSRFSGSGSGTDYTLTISSLQPEDFATYYCQHFWGTPLTFGQGTKVEIKR
modifications: siRNA-linker on a reduced cysteine; chain and residue not stated
notes: also called Fab0061 (BLI conjugate columns)
Kd [1]: 1.9 nM
koff [1]: 0.000527 s⁻¹
kon [1]: 278000 M⁻¹ s⁻¹
Kd [2]: 6.85 nM
koff [2]: 0.0017 s⁻¹
kon [2]: 248000 M⁻¹ s⁻¹

B2: Fab0002-siRNA conjugate (Fab, V domains shown)
VH: EVQLVQSGAEVKKPGASVKVSCKASGYTFTSYWMHWVRQAPGQRLEWIGEINPTNGRTNYIEKFKSRATLTVDKSASTAYMELSSLRSEDTAVYYCARGTRAYHYWGQGTMVTVSS
VL: B1 VL with L4M, G28N, A43S, I48V, K53N, S56D
modifications: siRNA-linker on a reduced cysteine; chain and residue not stated
notes: also called Fab0002 (BLI conjugate columns)
Kd [1]: 16.7 nM
koff [1]: 0.00349 s⁻¹
kon [1]: 209000 M⁻¹ s⁻¹
Kd [2]: 25.1 nM
koff [2]: 0.00732 s⁻¹
kon [2]: 292000 M⁻¹ s⁻¹

B3: Fab0071-siRNA conjugate (Fab, V domains shown)
VH: B1 VH with T30N, V58T
VL: B1 VL with T52R, K53N
modifications: siRNA-linker on a reduced cysteine; chain and residue not stated
notes: also called Fab0071 (BLI conjugate columns)
Kd [1]: 2.67 nM
koff [1]: 0.000716 s⁻¹
kon [1]: 268000 M⁻¹ s⁻¹
Kd [2]: 18.1 nM
koff [2]: 0.00429 s⁻¹
kon [2]: 234000 M⁻¹ s⁻¹

B4: Fab0060-siRNA conjugate (Fab, V domains shown)
VH: B1 VH with M34V, V58T
VL: B1 VL
modifications: siRNA-linker on a reduced cysteine; chain and residue not stated
notes: also called Fab0060 (BLI conjugate columns)
Kd [1]: 3.65 nM
koff [1]: 0.00109 s⁻¹
kon [1]: 298000 M⁻¹ s⁻¹
Kd [2]: 9.11 nM
koff [2]: 0.00252 s⁻¹
kon [2]: 276000 M⁻¹ s⁻¹

B5: Fab0074-siRNA conjugate (Fab, V domains shown)
VH: B1 VH with T30K, V58T
VL: B1 VL with T52K, K53N
modifications: siRNA-linker on a reduced cysteine; chain and residue not stated
notes: also called Fab0074 (BLI conjugate columns)
Kd [1]: 2.78 nM
koff [1]: 0.000793 s⁻¹
kon [1]: 286000 M⁻¹ s⁻¹
Kd [2]: 12.2 nM
koff [2]: 0.00321 s⁻¹
kon [2]: 264000 M⁻¹ s⁻¹

B7: Fab0069-siRNA conjugate (Fab, V domains shown)
VH: B1 VH with M34V, V58S
VL: B1 VL
modifications: siRNA-linker on a reduced cysteine; chain and residue not stated
notes: also called Fab0069 (BLI conjugate columns)
Kd [1]: 5.45 nM
koff [1]: 0.00164 s⁻¹
kon [1]: 301000 M⁻¹ s⁻¹
Kd [2]: 9.58 nM
koff [2]: 0.00245 s⁻¹
kon [2]: 256000 M⁻¹ s⁻¹

B10: Fab0070-siRNA conjugate (Fab, V domains shown)
VH: B1 VH with Y27F, V58T
VL: B1 VL with G28K, K53L
modifications: siRNA-linker on a reduced cysteine; chain and residue not stated
notes: also called Fab0070 (BLI conjugate columns)
Kd [1]: 3.71 nM
koff [1]: 0.000974 s⁻¹
kon [1]: 263000 M⁻¹ s⁻¹
Kd [2]: 16.9 nM
koff [2]: 0.00413 s⁻¹
kon [2]: 244000 M⁻¹ s⁻¹

B12: Fab0063-siRNA conjugate (Fab, V domains shown)
VH: B1 VH
VL: B1 VL with K53R
modifications: siRNA-linker on a reduced cysteine; chain and residue not stated
notes: also called Fab0063 (BLI conjugate columns)
Kd [1]: 2.72 nM
koff [1]: 0.000775 s⁻¹
kon [1]: 285000 M⁻¹ s⁻¹
Kd [2]: 8.37 nM
koff [2]: 0.0022 s⁻¹
kon [2]: 263000 M⁻¹ s⁻¹

B15: Fab0065-siRNA conjugate (Fab, V domains shown)
VH: B1 VH with M34V, V58S
VL: B1 VL with G28N, S31R
modifications: siRNA-linker on a reduced cysteine; chain and residue not stated
notes: also called Fab0065 (BLI conjugate columns)
Kd [1]: 2.64 nM
koff [1]: 0.00082 s⁻¹
kon [1]: 310000 M⁻¹ s⁻¹
Kd [2]: 5.63 nM
koff [2]: 0.0013 s⁻¹
kon [2]: 231000 M⁻¹ s⁻¹

B16: Fab0062-siRNA conjugate (Fab, V domains shown)
VH: B1 VH
VL: B1 VL with T52F, K53N
modifications: siRNA-linker on a reduced cysteine; chain and residue not stated
notes: also called Fab0062 (BLI conjugate columns)
Kd [1]: 4.47 nM
koff [1]: 0.00123 s⁻¹
kon [1]: 275000 M⁻¹ s⁻¹
Kd [2]: 11 nM
koff [2]: 0.00263 s⁻¹
kon [2]: 238000 M⁻¹ s⁻¹

Continued by falling Kd [1], values first:

Kd [1]: 2.1 nM
koff [1]: 0.000615 s⁻¹
kon [1]: 292000 M⁻¹ s⁻¹
Kd [2]: 9.23 nM
koff [2]: 0.00321 s⁻¹
kon [2]: 348000 M⁻¹ s⁻¹
B13: Fab0073-siRNA conjugate (Fab, V domains shown)
VH: B1 VH with T30K, V58T
VL: B1 VL with G28N, S31R
modifications: siRNA-linker on a reduced cysteine; chain and residue not stated
notes: also called Fab0073 (BLI conjugate columns)

Kd [1]: 1.81 nM
koff [1]: 0.000469 s⁻¹
kon [1]: 259000 M⁻¹ s⁻¹
Kd [2]: 10 nM
koff [2]: 0.00335 s⁻¹
kon [2]: 334000 M⁻¹ s⁻¹
B8: Fab0066-siRNA conjugate (Fab, V domains shown)
VH: B1 VH with M34V
VL: B1 VL with T52F, K53N
modifications: siRNA-linker on a reduced cysteine; chain and residue not stated
notes: also called Fab0066 (BLI conjugate columns)

Kd [1]: 1.69 nM
koff [1]: 0.000432 s⁻¹
kon [1]: 256000 M⁻¹ s⁻¹
Kd [2]: 8.89 nM
koff [2]: 0.00221 s⁻¹
kon [2]: 249000 M⁻¹ s⁻¹
B9: Fab0068-siRNA conjugate (Fab, V domains shown)
VH: B1 VH with M34V
VL: B1 VL
modifications: siRNA-linker on a reduced cysteine; chain and residue not stated
notes: also called Fab0068 (BLI conjugate columns)

Kd [1]: 1.44 nM
koff [1]: 0.000393 s⁻¹
kon [1]: 273000 M⁻¹ s⁻¹
Kd [2]: 5.96 nM
koff [2]: 0.0019 s⁻¹
kon [2]: 319000 M⁻¹ s⁻¹
B6: Fab0064-siRNA conjugate (Fab, V domains shown)
VH: B1 VH
VL: B1 VL with T52K, K53N
modifications: siRNA-linker on a reduced cysteine; chain and residue not stated
notes: also called Fab0064 (BLI conjugate columns)

Kd [1]: 0.898 nM
koff [1]: 0.000262 s⁻¹
kon [1]: 292000 M⁻¹ s⁻¹
Kd [2]: 10.8 nM
koff [2]: 0.00398 s⁻¹
kon [2]: 368000 M⁻¹ s⁻¹
B14: Fab0072-siRNA conjugate (Fab, V domains shown)
VH: B1 VH with T30N, V58F
VL: B1 VL with G28N, S31R, T52R, K53N
modifications: siRNA-linker on a reduced cysteine; chain and residue not stated
notes: also called Fab0072 (BLI conjugate columns)

Kd [1]: 0.623 nM
koff [1]: 0.000167 s⁻¹
kon [1]: 268000 M⁻¹ s⁻¹
Kd [2]: 5.02 nM
koff [2]: 0.0019 s⁻¹
kon [2]: 378000 M⁻¹ s⁻¹
B11: Fab0067-siRNA conjugate (Fab, V domains shown)
VH: B1 VH with M34V, V58T
VL: B1 VL with G28N, S31R
modifications: siRNA-linker on a reduced cysteine; chain and residue not stated
notes: also called Fab0067 (BLI conjugate columns)
